Measured values as given in publication PMC7941734 (Cell reports, 2021).

Biological target: His6-tagged ASF1A S166E (recombinant) (human, UniProt Q9Y294 1-204, S166E)
Experiment: pull-down

Sequence of His6-tagged ASF1A S166E (recombinant) (Q9Y294 whole entry S166E): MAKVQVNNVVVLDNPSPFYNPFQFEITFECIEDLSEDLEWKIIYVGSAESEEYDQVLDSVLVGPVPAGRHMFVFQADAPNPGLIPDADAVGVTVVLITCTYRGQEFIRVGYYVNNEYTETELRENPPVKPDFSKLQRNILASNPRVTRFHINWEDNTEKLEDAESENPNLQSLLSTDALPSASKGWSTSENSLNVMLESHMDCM

B1: GST-tagged FHA domain of MDC1 (aa 1–158) (domain or fragment, human, UniProt Q14676 1-158, looked up)
chain: MEDTQAIDWDVEEEEETEQSSESLRCNVEPVGRLHIFSGAHGPEKDFPLHLGKNVVGRMPDCSVALPFPSISKQHAEIEILAWDKAPILRDCGSLNGTQILRPPKVLSPGVSHRLRDQELILFADLLCQYHRLDVSLPFVSRGPLTVEETPRVQGETQ
B1: binds.
